Assay: yeast display, Sf9 membrane polyspecificity reagent, FACS + sequencing; frameworks hold sequencing errors
Method in brief: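 In a synthetic yeast display library (Saccharomyces cerevisiae BJ5465), nanobody expression was induced with galactose for 36–48 hours. FACS gates were set low and high (top ~1%) using anti-HA fluorescence for expression and streptavidin fluorescence for binding of the Sf9 membrane reagent. Each polyreactivity label is drawn from the gate of origin.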

In the case of “QVQLVESGGGLVQAGGSLRLSCAASGSIFGPYAMGWYRQAPGKDRELVAAISLGGGSTSYADSVKGRFTISRDNAKNTVYIQMNSLKPEDTAVYYCNAEYYSGPYGYNGFDYWGQGTQVTVSS”, the “polyreactivity (PSR sort gate)” value is reported as “low polyreactivity”.

In the case of “QVQLVESGGGLVQAGGSLRLSCAASGSIFGPYAMGWYRQAPGKERELVAAITWTGGRTYYADSVKGRFTISRDNAKNTVYLQMNSLKPVDTAVYDCAADYSPSTWYLYYTLYYYWGEGTQVTVSS”, the “polyreactivity (PSR sort gate)” value is reported as “low polyreactivity”.

For “QVQLVESGGGLVQAGGSLRLSCAASGSIFGPYAMGWYRQAPGKERELVARITLSAGNTYYADSVKGRFTISRDNAKNTVYLQMNSLKPEDTAVYYCAAKVYSKYWFVGNYWGQGRQVTVSS”, the “polyreactivity (PSR sort gate)” value was “high polyreactivity”.

With “QVQLVESGGGLVQAGGSLRLSCAASGSIFGPYVMGWYRQAPGKEREFVAAIRGSGGSTYYADSVKGRFTISRDNAKNTVYLQMNSLKPEDTAVYYCNARLKYTLYYYWGQGTQVTVSS” the “polyreactivity (PSR sort gate)” value was “high polyreactivity”.

In the case of “QVQLVESGGGLVQAGGSLRLSCAASGSIFGQYAMGCYRQAPGKERELVATISSSGGSTYYADSVKGRFTISRDNAKNTVYLQMNSLKPEDTAVYYCAADWTLDPSYGYYADDYWGQGTQVTVSS”, the “polyreactivity (PSR sort gate)” value is reported as “low polyreactivity”.

In the case of “QVQLVESGGGLVQAGGSLRLSCAASGSIFGRNAMAWYRQAPGKERELVADIWNGGSTYYADSVNGRFTNSRDNAKNTVYFLMNSLKPEDTAVSYCNADADDDGRFGGYMKYDYWGQGTQVTVSS”, the “polyreactivity (PSR sort gate)” value is reported as “low polyreactivity”.

For “QVQLVESGGGLVQAGGSLRLSCAASGSIFGRNAMGWSRQAPGNERELVARISYIGGSTYYADSVKARFTISRDNAKTTVYLQMNSLKPEDTAVYYCAKRYGFRYKRMDYWGQGTQVTVSS”, the “polyreactivity (PSR sort gate)” value was “low polyreactivity”.

With “QVQLVESGGGLVQAGGSLRLSCAASGSIFGRNAMGWYRQAPGKERELVAAISTSGGSTYYADSVKGRFTISRDNAKNTVYLQMNSLKPEDTAVYYCNAEQYTQLDVNLYDYWGQGTQVTVSS” the “polyreactivity (PSR sort gate)” value was “low polyreactivity”.

With “QVQLVESGGGLVQAGGSLRLSCAASGSIFGRNDMGWYRQAPGKERELVARITRGGSTNYADSVKGRFTISRDNAKNTVYLQMNSLKPEDTAVYYCAAGARQYRGVPDRYGYWGQGTQVTVSS” the “polyreactivity (PSR sort gate)” value was “low polyreactivity”.

In the case of “QVQLVESGGGLVQAGGSLRLSCAASGSIFGRYAMGWYRPAPGKDRELVAAISDDSSTNYADSVKGRFTISRDNAKHNDYLQMHSLKPEVTAVYYCNADSWRYVAEGLWREYDYWGQGTQVTVSS”, the “polyreactivity (PSR sort gate)” value is reported as “low polyreactivity”.

In the case of “QVQLVESGGGLVQAGGSLRLSCAASGSIFGRYAMGWYRQAPGKERELLAALTYRGGTTYYADSVKGRFTISRDNAKNTVYLQMNSLKPEDTAVYYCAAEGTWYYKYGYFAYYYWGQGTQVTVSS”, the “polyreactivity (PSR sort gate)” value is reported as “low polyreactivity”.

With “QVQLVESGGGLVQAGGSLRLSCAASGSIFGRYAMGWYRQAPGKERELVAAISSSGGRTYYADSVKGRFTISRDNAKNTVYLKMNSLKPEDTAVYYCNKDWYYLIPGYNYWGQGTQVTVSS” the “polyreactivity (PSR sort gate)” value was “high polyreactivity”.

For “QVQLVESGGGLVQAGGSLRLSCAASGSIFGRYAMGWYRQAPGKERELVANITSGDSTNYADSVKGRFTISRDNAKNTVYLQMNSRKPEDTAVYYCAAYRIGQYDYWGQGTQVTVSS”, the “polyreactivity (PSR sort gate)” value was “high polyreactivity”.

For “QVQLVESGGGLVQAGGSLRLSCAASGSIFGRYAMGWYRQAPGKERELVASISRRCGSTYYADSVKGRFTISRDNAKNTVYLQMNRLKPEDTAVYDCNVAPWSASSANLEDYWGQGNQVTVSS”, the “polyreactivity (PSR sort gate)” value was “high polyreactivity”.

With “QVQLVESGGGLVQAGGSLRLSCAASGSIFGRYAMGWYRQAPGTEREGVAAISRSCDNTSYADSVKGRFTISRDTAKNTVYLQMNSLKPEDSAVYYCNADRPFSLGQRKYVDFDEPYNYWGQGTQVTVSS” the “polyreactivity (PSR sort gate)” value was “low polyreactivity”.

In the case of “QVQLVESGGGLVQAGGSLRLSCAASGSIFGRYAMGWYRQARGKERELVAAISWSGGSTYYADSVKGRFTISRDNAKNTVYLQMNSLKPEDTAVYYCAANYKYAYEYWGQGTQVTVSS”, the “polyreactivity (PSR sort gate)” value is reported as “high polyreactivity”.

In the case of “QVQLVESGGGLVQAGGSLRLSCAASGSIFGRYVMGWYRQAPGTDRELVAAISGSGTSTYYADSVKGRFTISRDNAKNTVYLQMNSLKPEDTAVYYCAARDIKSSHDYDYWGQGTQVTVSS”, the “polyreactivity (PSR sort gate)” value is reported as “low polyreactivity”.

In the case of “QVQLVESGGGLVQAGGSLRLSCAASGSIFGSNAMGWYRQAPGKERELVAAITSRGGSTYYADSVKGRFTISRDNAKNTVYLQMNSLKPEDTAVYYCAADYQSVGGAEYDYWGQGTQVTVSS”, the “polyreactivity (PSR sort gate)” value is reported as “high polyreactivity”.

With “QVQLVESGGGLVQAGGSLRLSCAASGSIFGSNTMGWYRQAPGKEREFVAAISFSGGSTYYADSVKGRFTISRDNAKNTVYLQLNSLKPEDTAVYYWAARQSRVGTSFYYSRRDYWGQGTEVTVSS” the “polyreactivity (PSR sort gate)” value was “high polyreactivity”.

With “QVQLVESGGGLVQAGGSLRLSCAASGSIFGSYAMGWNRQAPGKDREFVAGIDQSGSSTYYADSVKGRFTISRDNAKNTVYLQMNSLKPEDTAVYYCAARHRYRTYKMYYWGQGTQVTVSS” the “polyreactivity (PSR sort gate)” value was “high polyreactivity”.

With “QVQLVESGGGLVQAGGSLRLSCAASGSIFGSYAMGWYRQAPGKARELVAAISQSGSSTYYADSVKGRFTISRDNAKNTVSLQMNSLKPEDTAVYYCAADWRHLRYRGGLQYDYWGQGTQVTVSS” the “polyreactivity (PSR sort gate)” value was “high polyreactivity”.

For “QVQLVESGGGLVQAGGSLRLSCAASGSIFGSYAMGWYRQAPGKERELVAGITRRSGSTYYADSVKGRFTISRDNAKNTVYLQMNSLKPEDTAVYYCAADTWFGMDYWGQGTQVTVSS”, the “polyreactivity (PSR sort gate)” value was “high polyreactivity”.

For “QVQLVESGGGLVQAGGSLRLSCAASGSIFGSYAMGWYRQAPGKERELVAGITRRSGSTYYADSVKGRFTISRDNAKNTVYLQMNSLKPEDTAVYYCNAQAYSRRWDARGDYWGQGTQVTVSS”, the “polyreactivity (PSR sort gate)” value was “high polyreactivity”.

For “QVQLVESGGGLVQAGGSLRLSCAASGSIFGSYAMGWYRQAPGNERELVAAISKSGGNTYYADSVKGRFTISRDNAKNTVYLQMNSLKPEDTAVYYCAARYRFLRPKVNYWGQGTQVTVSS”, the “polyreactivity (PSR sort gate)” value was “high polyreactivity”.

With “QVQLVESGGGLVQAGGSLRLSCAASGSIFGSYARGRYRQAPVKERELVAGITYRGSSTYYADSVKGRFTISRDKAKNTVYLQMNSLKPEDTAVYYCAADPVFDEYDYWGQGTQVTVSS” the “polyreactivity (PSR sort gate)” value was “low polyreactivity”.

For “QVQLVESGGGLVQAGGSLRLSCAASGSIFGSYTMGWYRQAPGKERELVAAITSSGGGTYYADSVKGRFTISRDNAKNTVYLQMNSLKPEDTAVYYCAAEYRDGYRFSYDYWGQGTQVTVSS”, the “polyreactivity (PSR sort gate)” value was “low polyreactivity”.

In the case of “QVQLVESGGGLVQAGGSLRLSCAASGSIFGTNAMGWYRQAPGKERELVAAIDGGSTTYYADSVKGRFTISRDNAKNTVYLQMNSLKPEDTAVYYCAADGTRYLNYEGYAGYEYWGQGTQGTVSS”, the “polyreactivity (PSR sort gate)” value is reported as “low polyreactivity”.

In the case of “QVQLVESGGGLVQAGGSLRLSCAASGSIFGTNAMGWYRQAPGKERELVAAISTSADITYYADSVKGRFTISRDNAKNTVYLQMNSLKPEDTAVYYCNKRKWPTFTYAMNYWGQGTQVTVSS”, the “polyreactivity (PSR sort gate)” value is reported as “low polyreactivity”.

With “QVQLVESGGGLVQAGGSLRLSCAASGSIFGTYAMGWYRQAPGKERELVAAISFIGGDTYYADSVKGRFTISRDNAKNTVYLQMNSLKPEDTAVYYCAADRELSGYGGEYWGQGTQVTVSS” the “polyreactivity (PSR sort gate)” value was “low polyreactivity”.

In the case of “QVQLVESGGGLVQAGGSLRLSCAASGSIFGVNAMGWYRQAHGKERELVASITGGDSTNYADSVKGRFTISRDNAKNTVYLLMNSLKPEDTAVYYCAKDHYYRYEEGDYWGQGTQVTVSS”, the “polyreactivity (PSR sort gate)” value is reported as “low polyreactivity”.

For “QVQLVESGGGLVQAGGSLRLSCAASGSIFGVNAMGWYRQAPGKERELVAAISSGGSTNYADSVKGRFTISRDNAKNTVYLQMNSLKPEDTAVYYCAADTKTRSNYDYWGQGTQVTVSS”, the “polyreactivity (PSR sort gate)” value was “low polyreactivity”.

From the nanobody polyreactivity screen of Harvey et al. (2022)
